Measured values reported in US6884600.

Tests used:
[1] = biological target: myosin from chicken gizzard, dephosphorylated form (chicken) (UniProt P10587); assay: co-sedimentation, 30 nM PP1M with 1 µM myosin
[2] = biological target: myosin from chicken gizzard, dephosphorylated form (chicken) (UniProt P10587); assay: co-sedimentation with M21 in excess (10-50 µM M21, 1 µM myosin), Coomassie-stained gel
[3] = biological target: PP1GL, glycogen-associated form of PP1 in rat hepatic glycogen-protein particles (rat); assay: cell-based or functional assay

Sequence of myosin from chicken gizzard, dephosphorylated form (chicken) (P10587 2-1979, chain 1 of 3): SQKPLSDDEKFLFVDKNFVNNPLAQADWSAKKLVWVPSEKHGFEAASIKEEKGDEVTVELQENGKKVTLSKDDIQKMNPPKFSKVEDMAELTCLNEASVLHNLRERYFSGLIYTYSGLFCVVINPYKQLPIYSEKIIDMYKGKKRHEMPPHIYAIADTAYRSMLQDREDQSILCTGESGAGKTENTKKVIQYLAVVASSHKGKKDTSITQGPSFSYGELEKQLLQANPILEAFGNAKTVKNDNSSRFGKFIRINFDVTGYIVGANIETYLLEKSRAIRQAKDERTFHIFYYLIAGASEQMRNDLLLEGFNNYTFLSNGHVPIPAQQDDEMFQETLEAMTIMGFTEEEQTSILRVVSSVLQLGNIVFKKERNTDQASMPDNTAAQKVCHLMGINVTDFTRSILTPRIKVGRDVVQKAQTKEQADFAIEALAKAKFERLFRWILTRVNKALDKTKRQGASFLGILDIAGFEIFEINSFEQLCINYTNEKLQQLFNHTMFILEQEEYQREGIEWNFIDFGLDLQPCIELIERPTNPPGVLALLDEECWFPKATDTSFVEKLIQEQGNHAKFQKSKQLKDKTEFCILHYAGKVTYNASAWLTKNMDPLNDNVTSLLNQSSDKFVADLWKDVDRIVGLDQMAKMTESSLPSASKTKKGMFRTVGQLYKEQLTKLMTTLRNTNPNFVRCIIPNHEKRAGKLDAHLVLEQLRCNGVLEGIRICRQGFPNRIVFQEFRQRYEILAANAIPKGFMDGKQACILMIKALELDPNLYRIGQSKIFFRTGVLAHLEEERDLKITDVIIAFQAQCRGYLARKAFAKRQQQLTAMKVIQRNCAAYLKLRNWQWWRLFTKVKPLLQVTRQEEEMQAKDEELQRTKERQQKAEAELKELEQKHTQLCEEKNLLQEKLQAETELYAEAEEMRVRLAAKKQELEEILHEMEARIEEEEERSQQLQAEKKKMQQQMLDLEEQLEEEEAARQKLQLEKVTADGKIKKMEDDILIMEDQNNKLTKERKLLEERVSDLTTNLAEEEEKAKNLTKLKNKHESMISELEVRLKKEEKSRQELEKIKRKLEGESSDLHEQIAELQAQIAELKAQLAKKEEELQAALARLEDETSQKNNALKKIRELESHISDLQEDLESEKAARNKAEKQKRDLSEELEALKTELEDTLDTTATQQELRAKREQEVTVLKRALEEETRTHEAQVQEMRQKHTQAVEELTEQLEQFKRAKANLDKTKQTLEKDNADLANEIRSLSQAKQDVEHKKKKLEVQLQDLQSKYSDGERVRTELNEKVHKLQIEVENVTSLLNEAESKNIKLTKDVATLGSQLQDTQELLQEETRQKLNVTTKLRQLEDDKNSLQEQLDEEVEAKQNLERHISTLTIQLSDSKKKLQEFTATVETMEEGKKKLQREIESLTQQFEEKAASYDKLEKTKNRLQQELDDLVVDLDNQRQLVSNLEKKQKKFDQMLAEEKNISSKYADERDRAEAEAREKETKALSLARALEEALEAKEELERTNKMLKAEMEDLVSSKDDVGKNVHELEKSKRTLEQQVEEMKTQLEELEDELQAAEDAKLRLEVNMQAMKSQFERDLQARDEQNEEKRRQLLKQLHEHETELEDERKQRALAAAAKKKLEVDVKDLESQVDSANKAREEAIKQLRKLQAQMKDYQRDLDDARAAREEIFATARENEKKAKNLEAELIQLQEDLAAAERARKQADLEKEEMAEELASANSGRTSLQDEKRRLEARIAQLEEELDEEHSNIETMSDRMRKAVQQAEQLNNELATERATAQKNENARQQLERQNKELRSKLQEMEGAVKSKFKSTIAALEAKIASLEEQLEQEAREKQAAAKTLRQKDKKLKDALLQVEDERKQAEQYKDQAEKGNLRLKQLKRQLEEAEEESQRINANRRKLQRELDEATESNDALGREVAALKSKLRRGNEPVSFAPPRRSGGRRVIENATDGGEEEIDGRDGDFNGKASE
Sequence of myosin from chicken gizzard, dephosphorylated form (chicken) (P02612 2-172, chain 2 of 3, further chain): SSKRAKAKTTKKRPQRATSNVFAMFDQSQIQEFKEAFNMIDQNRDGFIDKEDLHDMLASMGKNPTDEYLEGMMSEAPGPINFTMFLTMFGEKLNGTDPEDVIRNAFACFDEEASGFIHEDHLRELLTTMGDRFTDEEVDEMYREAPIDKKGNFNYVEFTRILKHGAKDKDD
Sequence of myosin from chicken gizzard, dephosphorylated form (chicken) (P02607 2-151, chain 3 of 3, further chain): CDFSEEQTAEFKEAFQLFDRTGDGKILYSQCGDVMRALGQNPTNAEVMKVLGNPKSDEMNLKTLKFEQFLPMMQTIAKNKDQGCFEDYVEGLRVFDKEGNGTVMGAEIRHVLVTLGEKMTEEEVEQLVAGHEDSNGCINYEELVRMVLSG
Sequence of PP1M, myosin-associated form of PP1 from chicken gizzard (P62207 2-327): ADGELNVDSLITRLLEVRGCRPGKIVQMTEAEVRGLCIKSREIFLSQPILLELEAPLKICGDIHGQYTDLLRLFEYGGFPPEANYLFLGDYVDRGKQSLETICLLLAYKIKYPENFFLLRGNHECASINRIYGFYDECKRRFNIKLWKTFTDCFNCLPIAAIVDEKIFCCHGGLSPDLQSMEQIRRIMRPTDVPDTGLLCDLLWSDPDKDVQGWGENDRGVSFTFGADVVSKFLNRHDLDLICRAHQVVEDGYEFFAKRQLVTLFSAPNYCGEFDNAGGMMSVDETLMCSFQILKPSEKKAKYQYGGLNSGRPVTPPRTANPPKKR
Sequence of PP1M, myosin-associated form of PP1 from chicken gizzard (chain): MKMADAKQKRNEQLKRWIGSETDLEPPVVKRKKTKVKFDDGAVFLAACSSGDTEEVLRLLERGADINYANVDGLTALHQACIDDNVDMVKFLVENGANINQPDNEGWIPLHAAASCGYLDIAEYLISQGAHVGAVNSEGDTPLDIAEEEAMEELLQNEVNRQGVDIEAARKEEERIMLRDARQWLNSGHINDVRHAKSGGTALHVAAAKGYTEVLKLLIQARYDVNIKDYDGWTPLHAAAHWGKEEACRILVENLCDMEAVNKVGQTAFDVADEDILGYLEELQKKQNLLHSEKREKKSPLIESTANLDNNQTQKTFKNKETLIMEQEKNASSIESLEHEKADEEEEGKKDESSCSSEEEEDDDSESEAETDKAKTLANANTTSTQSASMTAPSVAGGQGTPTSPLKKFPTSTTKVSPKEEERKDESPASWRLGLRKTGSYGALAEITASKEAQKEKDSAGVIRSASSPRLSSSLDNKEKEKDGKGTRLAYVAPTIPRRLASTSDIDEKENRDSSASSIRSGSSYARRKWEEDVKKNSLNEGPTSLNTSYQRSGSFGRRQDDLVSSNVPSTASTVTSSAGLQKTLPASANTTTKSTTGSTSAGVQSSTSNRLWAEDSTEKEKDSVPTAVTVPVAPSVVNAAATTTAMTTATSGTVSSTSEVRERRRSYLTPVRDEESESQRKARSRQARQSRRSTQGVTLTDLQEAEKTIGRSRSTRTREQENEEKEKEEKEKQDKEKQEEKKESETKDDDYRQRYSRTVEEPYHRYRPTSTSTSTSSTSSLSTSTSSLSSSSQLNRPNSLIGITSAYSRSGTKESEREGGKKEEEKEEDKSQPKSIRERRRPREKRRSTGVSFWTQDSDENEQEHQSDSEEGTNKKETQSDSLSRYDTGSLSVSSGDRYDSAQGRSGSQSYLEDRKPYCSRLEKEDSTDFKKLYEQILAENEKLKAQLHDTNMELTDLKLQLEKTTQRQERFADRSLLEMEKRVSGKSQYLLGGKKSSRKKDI

A percent of myosin P-light chain phosphatase recovered in the myosin pellet [1] of 85% was found for “PP1M, myosin-associated form of PP1 from chicken gizzard (from UniProt P62207 2-327) (enzyme)” in this work.
With “M21 subunit of chicken gizzard PP1M, full length (M1-K186)” the moles of M21 subunit bound to each myosin dimer (mol/mol myosin dimer) [2] was > 20.
An effectiveness of disruption of the PP1-GL complex relative to wild type GM[63-75] [3] of 100 fold was found for “GM[G63-N75] variant with Val 66 changed to Ala (peptide)” in this work.
